{"source": "patent US10888547B2", "about": "“Amorphous and a crystalline form of genz 112638 hemitartrate as inhibitor of glucosylceramide synthase” (Genzyme Corporation, priority 2009, dated 2021)", "key": {"[1]": {"assay": "Hygroscopicity of salts and free base", "type": "physicochemical"}, "cytochrome P450 enzymes": {"system": "cytochrome P450 enzymes", "assay": "Hepatic metabolism by cytochrome P450 enzymes", "type": "in vitro ADME, human", "details": "liver", "source_text": "Cytochrome P450s (“CYPs”) are the principal hepatic xenobiotic metabolizing enzymes. There are eleven xenobiotic-metabolizing cytochrome P450s expressed in a typical human liver (i.e., CYP1A2, CYP2A6, CYP2B6, CYP2C8/9/18/19, CYP2D6, CYP2E1 and CYP3A4/5). […] The level of activity of P450 enzymes differs according to the individual. For example, individuals can be classified as poor, intermediate and extensive/ultra rapid P450 metabolizers. Because lower levels of P450 activity in an individual can give rise to drug/drug interactions (“DDI”), another embodiment of the invention is to determine whether the subject is a poor, intermediate and extensive/ultra rapid P450 metabolizer. […] The dose can raised incrementally and the subject retested once, twice, three, four or as many times as necessary to achieve an adjusted effective dose."}, "Aqueous solubility": {"assay": "Aqueous solubility", "type": "physicochemical", "details": "in water"}, "Fabry-Rag mice": {"system": "Fabry-Rag mice", "assay": "Combination ERT/SRT therapy of Fabry-Rag mice", "type": "in vivo, mouse", "details": "ERT 1 mg/kg α-galactosidase A i.v., SRT 300 mg/kg daily in diet", "experimental": "For the combination therapy studies, Fabry-Rag mice were put on study at 3 months old (treatment model). Mice in group A received intravenous injections of recombinant human alpha-galactosidase A (Genzyme Corp.) at a dose of 1 mg/kg every 2 months (i.e. 3, 5, 7 and 9 months old). Group B received the same intravenous enzyme doses plus it received Formula (I) Hemitartrate (Genzyme Corp., Cambridge, Mass.) as a component of the pellet food diet. The drug was formulated at 0.15% (w/w) in standard 5053 mouse chow (TestDiet, Richmond, Ind.) and provided ad libitum. […] Group C received enzyme injections every 4 months (i.e. 3 and 7 months old) and was on the same drug-in-food diet as group B. Group D received only the drug-in-food diet (same as groups B and C). Group E was untreated Fabry-Rag mice and group F were wild-type controls.\nQuantitation of GL-3 was by Tandem Mass Spectrometry essentially as for GL-1.\nHot plate Assay was performed as described previously (Ziegler, R J et al. Molec. Ther. 15(3), 492-500 (2007).\nBeginning at three-months of age, the mice were subjected to a schedule of behavioral tests (i.e. hot-plate assay) and biochemical tests (i.e., GL-3 level analysis in tissues/blood/urine), as shown in FIG. 10."}, "[2]": {"system": "Gaucher mice (D409V/null)", "assay": "Glucocerebrosidase dosing regimen for debulking GL1 in Gaucher mice", "type": "in vivo, mouse", "details": "for reduction of GL1 levels in the liver: 7 days after last infusion", "experimental": "To investigate the relative merits of combination and monotherapy with either enzyme or substrate reduction therapy, the enzyme regimen that maximally depleted GL1 levels in the visceral organs of Gaucher mice was first determined. Three month-old Gaucher mice (D409V/null) were intravenously administered 2, 4 or 8 doses of 10 mg/kg recombinant human glucocerebrosidase. The mice that were treated with 2 or 4 doses of the enzyme received drug infusions every 3 days while those that were treated with 8 doses received the enzyme every 2 days. The use of a shorter time interval between infusions in animals that received 8 treatments was designed to minimize the potential impact of any immune response to the administered human enzyme. The animals were killed 7 days following the last enzyme infusion and the amount of GL1 remaining in their livers, spleens, and lungs were measured."}, "[3]": {"system": "Gaucher mice (D409V/null)", "assay": "Separate and sequential enzyme and substrate reduction therapy in Gaucher mice", "type": "in vivo, mouse", "source_text": "Procedures involving animals were reviewed and approved by the Institutional Animal Care and Use Committee (IACUC) at Genzyme Corporation following the guidelines issued by the Association for Assessment and Accreditation of Laboratory Animal Care (AAALAC). […] The study had 6 groups of mice with group A being sacrificed after 2 weeks to provide baseline levels of tissue glucosylceramide. Groups B, C, and D all received recombinant human glucocerebrosidase (Genzyme Corp., Cambridge, Mass.) (10 mg/kg) intravenously via a tail-vein (100 μL) every 2 days for a total of 8 injections. Group B was sacrificed at the end of this regimen (at the same time as group A) to provide enzyme-reduced levels of tissue glucosylceramide. Groups D and E were both fed Formula (I) Hemitartrate (Genzyme Corp., Cambridge, Mass.) as a component of the pellet food diet. The drug was formulated at 0.075% (w/w) in standard 5053 mouse chow (TestDiet, Richmond, Ind.) and provided ad libitum. […] Group F received no treatment and was sacrificed along with groups C, D and E 12 weeks after the start of the study. Food consumption and mouse weights were monitored three times per week to determine drug intake and the potential impact of the drug on overall health. Animals were killed by carbon dioxide inhalation and their tissues harvested immediately. Half of each tissue was snap frozen on dry ice and stored at −80° C. until ready for further processing. The other half was processed for histological analysis.\nGlucosylceramide levels were quantified by mass spectrometry as described previously (see K. McEachern, et al., J. Gene. Med. 8 (2006) 719-729; T. Doering, J. Biol. Chem. 274 (1999) 11038-11045, the entire teachings of both are incorporated herein by reference). A known mass of tissue was homogenized in 2:1 (v/v) chloroform:methanol and incubated at 37° C. for 15 min. Samples were centrifuged and the supernatants were extracted with 0.2 volumes of water overnight at 4° C. The samples were centrifuged, the aqueous phase was discarded, and the organic phase was dried down to a film under nitrogen. For electrospray ionization mass spectrometry (ESI/MS) analysis, tissue samples were reconstituted to the equivalent of […] original tissue weight in 1 ml chloroform:methanol (2:1, v/v) and vortexed for 5 min. Aliquots (40 μL) of each sample were delivered to Waters total recovery vials and 50 μL of a 10 μg/mL d3-C16-GL-1 internal standard (Matreya, Inc., Pleasant Gap, Pa.) was added. Samples were dried under nitrogen and reconstituted with 200 μL of 1:4 (v/v) DMSO:methanol. ESI/MS analysis of glucosylceramides of different carbon chain lengths was performed on a Waters alliance HPLC (Separation Module 2695) coupled to a Micromass Quattro Micro system equipped with an electrospray ion source. Lipid extract samples (20 μL) were injected onto a C8 column ([…] i.d; Phenomenex, Torrance, Calif.) at 45° C. and eluted with a gradient of 50 to 100% acetonitrile (2 mM ammonium acetate, 0.1% formic acid) at 0.5 mL/min. The first 0.5 min. was held at 50% organic and then quickly switched to 100% for the final 3.5 min. The source temperature was held constant at 150° C. and nitrogen was used as the desolvation gas at a flow rate of 670 L/h. The capillary voltage was maintained at 3.80 KV with a cone voltage of 23 V, while the dwell time for each ion species was 100 ms. Spectra were acquired by the MRM mode to monitor eight dominant isoforms (C16:0, C18:0, C20:0, C22:1, C22:0, C22:1-OH, C24:1, and C24:0). Quantitation of glucosylceramide was based on the sum of these eight isoforms relative to the internal standard, with a calibration curve ranging from 0.1 to 10 μg/mL.\nFor histological analysis, tissues were fixed in zinc formalin (Electron Microscopy Sciences, Hatfield, Pa.) at room temperature for 24 h, then stored in PBS at 4° C. until ready for further processing. […]"}}}
{"molecule": "CCCCCCCC(=O)N[C@H](CN1CCCC1)[C@H](O)c1ccc2c(c1)OCCO2", "note": "[hydrochloric acid (1:1)]", "values": [{"measurement": "hygroscopicity of the solid salt", "setting": "[1]; salt screen, Example 1", "result": "hygroscopic"}]}
{"molecule": "CCCCCCCC(=O)N[C@H](CN1CCCC1)[C@H](O)c1ccc2c(c1)OCCO2", "note": "[Formula (I) Free Base]", "values": [{"measurement": "Hygroscopicity (40° C./75% RH)", "setting": "[1]; 40° C./75% RH", "result": "None"}, {"measurement": "primary cytochrome P450 isoforms responsible for de-toxifying the compound", "setting": "cytochrome P450 enzymes", "result": "CYP2D6 and CYP3A4"}, {"measurement": "Aqueous solubility", "setting": "Aqueous solubility", "result": 40, "unit": "µg/mL"}]}
{"molecule": "ERT: enzyme replacement therapy in Fabry-Rag mice: recombinant human alpha-galactosidase A (Genzyme Corp.), 1 mg/kg intravenous (protein, UniProt P06280 32-429, looked up) Alpha-galactosidase A: LDNGLARTPTMGWLHWERFMCNLDCQEEPDSCISEKLFMEMAELMVSEGWKDAGYEYLCIDDCWMAPQRDSEGRLQADPQRFPHGIRQLANYVHSKGLKLGIYADVGNKTCAGFPGSFGYYDIDAQTFADWGVDLLKFDGCYCDSLENLADGYKHMSLALNRTGRSIVYSCEWPLYMWPFQKPNYTEIRQYCNHWRNFADIDDSWKSIKSILDWTSFNQERIVDVAGPGGWNDPDMLVIGNFGLSWNQQVTQMALWAIMAAPLFMSNDLRHISPQAKALLQDKDVIAINQDPLGKQGYQLRQGDNFEVWERPLSGLAWAVAMINRQEIGGPRSYTIAVASLGKGVACNPACFITQLLPVKRKLGFYEWTSRLRSHINPTGTVLLQLENTMQMSLKDLL", "values": [{"measurement": "onset of heat-insensitivity", "setting": "Fabry-Rag mice", "result": "not"}, {"measurement": "urine GL-3 levels", "setting": "Fabry-Rag mice", "result": "does not"}, {"measurement": "blood GL-3 levels", "setting": "Fabry-Rag mice; from 3 months of age", "result": "reduces"}]}
{"molecule": "recombinant glucocerebrosidase: recombinant human glucocerebrosidase (Genzyme Corp.), enzyme therapy given to Gaucher mice (protein, UniProt P04062 40-536, looked up) Lysosomal acid …: ARPCIPKSFGYSSVVCVCNATYCDSFDPPTFPALGTFSRYESTRSGRRMELSMGPIQANHTGTGLLLTLQPEQKFQKVKGFGGAMTDAAALNILALSPPAQNLLLKSYFSEEGIGYNIIRVPMASCDFSIRTYTYADTPDDFQLHNFSLPEEDTKLKIPLIHRALQLAQRPVSLLASPWTSPTWLKTNGAVNGKGSLKGQPGDIYHQTWARYFVKFLDAYAEHKLQFWAVTAENEPSAGLLSGYPFQCLGFTPEHQRDFIARDLGPTLANSTHHNVRLLMLDDQRLLLPHWAKVVLTDPEAAKYVHGIAVHWYLDFLAPAKATLGETHRLFPNTMLFASEACVGSKFWEQSVRLGSWDRGMQYSHSIITNLLYHVVGWTDWNLALNPEGGPNWVRNFVDSPIIVDITKDTFYKQPMFYHLGHFSKFIPEGSQRVGLVASQKNDLDAVALMHPDGSAVVVVLNRSSKDVPLTIKDPAVGFLETISPGYSIHTYLWRRQ", "values": [{"measurement": "splenic GL1 levels versus untreated controls", "setting": "[2]; 2 doses of 10 mg/kg i.v.", "result": "did not significantly alter"}, {"measurement": "reduction of GL1 levels in the liver", "setting": "[2]; 2 doses of 10 mg/kg i.v. every 3 days", "result": 50, "unit": "%"}, {"measurement": "reduction of splenic GL1 levels", "setting": "[2]; 4 or 8 doses of 10 mg/kg i.v.", "result": "about 50%"}, {"measurement": "reduction of GL1 levels in the liver", "setting": "[2]; 4 or 8 doses of 10 mg/kg i.v.", "result": "approximately 75%"}, {"measurement": "lung GL1, reduction to % of untreated control", "setting": "[2]; 8 doses of 10 mg/kg i.v. every 2 days", "result": "approximately 60%"}, {"measurement": "liver histopathology, CD68-positive Gaucher cells", "setting": "[3]; 2 weeks enzyme, then 10 weeks without further treatment", "result": "re-emergence of Gaucher cells"}, {"measurement": "liver histopathology, CD68-positive Gaucher cells", "setting": "[3]; enzyme over a period of 2 weeks", "result": "substantial clearance of the lipid"}, {"measurement": "stored GL1 levels cleared from the liver", "setting": "[3]; group B: 8 doses of 10 mg/kg enzyme over 2 weeks", "result": "Approximately 80%"}, {"measurement": "reduction of splenic GL1 levels", "setting": "[3]; group B: enzyme alone for 2 weeks", "result": "approximately 60%"}, {"measurement": "reduction in substrate (GL1) levels in the lung", "setting": "[3]; group B: enzyme for 2 weeks", "result": 30, "unit": "%"}, {"measurement": "splenic GL1 levels versus untreated control (F)", "setting": "[3]; group C: 2 weeks enzyme, then 10 weeks without further intervention", "result": "not significantly different"}, {"measurement": "liver GL1 levels versus untreated controls (F)", "setting": "[3]; group C: 2 weeks enzyme, then 10 weeks without further treatment", "result": "not significantly different"}, {"measurement": "lung GL1 levels versus untreated levels (F)", "setting": "[3]; group C: 2 weeks enzyme, then normal chow for 10 weeks", "result": "not significantly different"}]}
